# Measurements as given in patent publication US20230183713A1, “SITE-SPECIFIC RECOMBINASES FOR EFFICIENT AND SPECIFIC GENOME EDITING” (TECHNISCHE UNIVERSITÄt DRESDEN, published 2023).
# B1: loxP (dsDNA)
# DNA 1: ATAACTTCGTATAATGTATGCTATACGAAGTTAT
# DNA 2: ATAACTTCGTATAGCATACATTATACGAAGTTAT
# Columns and labels:
# Assay in all cases: cell_activity; E. coli plasmid assay, median
# Settings in all cases: chain copies: 2
# Cre Q311R + Cre W315M = Cre Q311R + Cre W315M (UniProt P06956;P06956 SEQ:1-343,SEQ:1-343, W315M (second monomer))
# Experimental: (§1) To generate further obligate recombinases, additional single mutations in the catalytic region (i.e. at amino acid positions 129-136, 163-181, 199-211, 289-301, 310-316 and 321-324 of SEQ ID NO: 1, cf. FIG. 17A, dark regions) of the recombination synapse of the Cre recombinase (Guo et al. 1997, Lee et al. 2002, Gibb et al. 2010, Meinke et al. 2016) were introduced as outlined in Table 6 below. […] Recombination activity of the recombinases on loxP was measured by a plasmid-based assay as previously described (6, 9, 10). in the experiments, the recombined pEVO is smaller in size compared to the non-recombined pEVO. […] These two different fragments can either be distinguished by gel electrophoresis or by sequencing. The recombination efficiencies (indicated as dimer and monomer acitivty, respectively) were calculated based on the ratio of recombined and non-recombined substrate using the following formula: Recombination activity (%)=100×(recombined substrate/(recombined+non-recombined substrates)).
# Cre K201F + Cre Y324C = Cre K201F + Cre Y324C (UniProt P06956;P06956 SEQ:1-343,SEQ:1-343, K201F (first monomer); Y324C (second monomer))
# Experimental: as §1
# Cre K201A + Cre Q311R = Cre K201A + Cre Q311R (UniProt P06956;P06956 SEQ:1-343,SEQ:1-343, K201A (first monomer))
# Experimental: as §1
# Cre E129R + Cre K201R = Cre E129R + Cre K201R (UniProt P06956;P06956 SEQ:1-343,SEQ:1-343, E129R (first monomer))
# Experimental: as §1
# Cre R173F + Cre E176V = Cre R173F + Cre E176V (UniProt P06956;P06956 SEQ:1-343,SEQ:1-343, R173F (first monomer); E176V (second monomer))
# Experimental: as §1
# Cre E176I + Cre Q311R = Cre E176I + Cre Q311R (UniProt P06956;P06956 SEQ:1-343,SEQ:1-343, E176I (first monomer))
# Experimental: as §1
# Cre R173G + Cre K201Y = Cre R173G + Cre K201Y (UniProt P06956;P06956 SEQ:1-343,SEQ:1-343, R173G (first monomer); K201Y (second monomer))
# Experimental: as §1
# Cre Q311R + Cre W315S = Cre Q311R + Cre W315S (UniProt P06956;P06956 SEQ:1-343,SEQ:1-343, W315S (second monomer))
# Experimental: as §1
# Cre Q311R + Cre Y324F = Cre Q311R + Cre Y324F (UniProt P06956;P06956 SEQ:1-343,SEQ:1-343, Y324F (second monomer))
# Experimental: as §1
# Cre R292G + Cre Q311R = Cre R292G + Cre Q311R (UniProt P06956;P06956 SEQ:1-343,SEQ:1-343, R292G (first monomer))
# Experimental: as §1
# Cre R173S + Cre Q311R = Cre R173S + Cre Q311R (UniProt P06956;P06956 SEQ:1-343,SEQ:1-343, R173S (first monomer))
# Experimental: as §1
# Cre Q133H + Cre Q311R = Cre Q133H + Cre Q311R (UniProt P06956;P06956 SEQ:1-343,SEQ:1-343, Q133H (first monomer))
# Experimental: as §1
# Cre E129R + Cre Q311R = Cre E129R + Cre Q311R (UniProt P06956;P06956 SEQ:1-343,SEQ:1-343, E129R (first monomer))
# Experimental: as §1
# Cre R173A + Cre Q311R = Cre R173A + Cre Q311R (UniProt P06956;P06956 SEQ:1-343,SEQ:1-343, R173A (first monomer))
# Experimental: as §1
# Cre Q311R + Cre Y324I = Cre Q311R + Cre Y324I (UniProt P06956;P06956 SEQ:1-343,SEQ:1-343, Y324I (second monomer))
# Experimental: as §1
# Cre W315Q + Cre Y324V = Cre W315Q + Cre Y324V (UniProt P06956;P06956 SEQ:1-343,SEQ:1-343, W315Q (first monomer); Y324V (second monomer))
# Experimental: as §1
# Cre W315K + Cre Y324K = Cre W315K + Cre Y324K (UniProt P06956;P06956 SEQ:1-343,SEQ:1-343, W315K (first monomer); Y324K (second monomer))
# Experimental: as §1
# Cre E176W + Cre Q311R = Cre E176W + Cre Q311R (UniProt P06956;P06956 SEQ:1-343,SEQ:1-343, E176W (first monomer))
# Experimental: as §1
# Cre H289D + Cre Q311R = Cre H289D + Cre Q311R (UniProt P06956;P06956 SEQ:1-343,SEQ:1-343, H289D (first monomer))
# Experimental: as §1
# Cre K201M + Cre K201R = Cre K201M + Cre K201R (UniProt P06956;P06956 SEQ:1-343,SEQ:1-343, K201M (first monomer))
# Experimental: as §1
# Cre R292Y + Cre Y324M = Cre R292Y + Cre Y324M (UniProt P06956;P06956 SEQ:1-343,SEQ:1-343, R292Y (first monomer); Y324M (second monomer))
# Experimental: as §1
# Cre R292F + Cre Q311R = Cre R292F + Cre Q311R (UniProt P06956;P06956 SEQ:1-343,SEQ:1-343, R292F (first monomer))
# Experimental: as §1
# Cre H289W + Cre W315C = Cre H289W + Cre W315C (UniProt P06956;P06956 SEQ:1-343,SEQ:1-343, H289W (first monomer); W315C (second monomer))
# Experimental: as §1
binder,measurement,setting,value
B1,activity,Cre Q311R + Cre W315M,95 % recombined
same,activity,Cre K201F + Cre Y324C,98 % recombined
same,activity,Cre K201A + Cre Q311R,95 % recombined
same,activity,Cre E129R + Cre K201R,26 % recombined
same,activity,Cre R173F + Cre E176V,82 % recombined
same,activity,Cre E176I + Cre Q311R,36 % recombined
same,activity,Cre R173G + Cre K201Y,95 % recombined
same,activity,Cre Q311R + Cre W315S,37 % recombined
same,activity,Cre Q311R + Cre Y324F,95 % recombined
same,activity,Cre R292G + Cre Q311R,97 % recombined
same,activity,Cre R173S + Cre Q311R,97 % recombined
same,activity,Cre Q133H + Cre Q311R,96 % recombined
same,activity,Cre E129R + Cre Q311R,93 % recombined
same,activity,Cre R173A + Cre Q311R,93 % recombined
same,activity,Cre Q311R + Cre Y324I,96 % recombined
same,activity,Cre W315Q + Cre Y324V,97 % recombined
same,activity,Cre W315K + Cre Y324K,99 % recombined
same,activity,Cre E176W + Cre Q311R,90 % recombined
same,activity,Cre H289D + Cre Q311R,97 % recombined
same,activity,Cre K201M + Cre K201R,76 % recombined
same,activity,Cre R292Y + Cre Y324M,90 % recombined
same,activity,Cre R292F + Cre Q311R,42 % recombined
same,activity,Cre H289W + Cre W315C,87 % recombined
